The record followed here is patent CN114685663A (UNIV SOUTHWEST, dated 2022).

Assay [1] deals with 猪溶素 (Suilysin, SLY), recombinant rSLY (猪链球菌 (Streptococcus suis)).
For assay [2], the target named is 肺炎链球菌溶血素 (Pneumolysin O, PLY), recombinant rPLY (肺炎链球菌 (Streptococcus pneumoniae)).
The target of assay [3] is 李斯特菌溶血素 (Listeriolysin O, LLO), recombinant rLLO (单增李斯特菌 (Listeria monocytogenes)).
The target in assay [4] is T1, rLLO D4 (单增李斯特菌 (Listeria monocytogenes)).
T1 construct: also called LLO D4结构域
The assay is described as follows: Western blot.

Assay [5] concerns the target T2, rSLY D4 (猪链球菌 (Streptococcus suis)).
T2 construct: also called SLY D4结构域
T2 chain: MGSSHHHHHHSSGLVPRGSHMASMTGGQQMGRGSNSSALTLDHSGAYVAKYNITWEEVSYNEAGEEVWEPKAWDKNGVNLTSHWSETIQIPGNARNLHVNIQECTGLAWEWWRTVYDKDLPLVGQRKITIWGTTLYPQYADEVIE
The assay is described as follows: Western blot. On the technique in general: A western blot detects proteins with antibodies after separation by electrophoresis.

The target of assay [6] is T3, rLLO D1-3 (单增李斯特菌 (Listeria monocytogenes)).
T3 construct: also called LLO D1-3结构域
T3 chain: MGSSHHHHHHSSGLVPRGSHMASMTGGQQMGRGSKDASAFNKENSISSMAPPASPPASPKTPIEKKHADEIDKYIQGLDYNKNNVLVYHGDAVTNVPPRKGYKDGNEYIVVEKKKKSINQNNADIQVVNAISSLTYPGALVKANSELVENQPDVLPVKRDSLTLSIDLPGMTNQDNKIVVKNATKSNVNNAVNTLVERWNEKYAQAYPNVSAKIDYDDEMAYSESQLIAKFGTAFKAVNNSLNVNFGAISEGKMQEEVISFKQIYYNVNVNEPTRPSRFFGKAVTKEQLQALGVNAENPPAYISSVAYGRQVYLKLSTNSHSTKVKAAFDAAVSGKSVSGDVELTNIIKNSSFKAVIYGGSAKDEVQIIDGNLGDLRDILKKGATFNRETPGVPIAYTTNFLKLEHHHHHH
In words: Western blot.

B1: 抗胆固醇依赖性细胞溶素的抗体 (antibody, V domains shown)
VH: QVQLQQSGPGLVKPSQTLSLTCAISGDSVSSNSVAWNWIRQSPSRGLEWLGRTYYRSKWYNDYAVSVKSRITINPDTSKNQFSLQLNSVTPEDTAVYYCVRVDNSGWGNWGQGTLVTVSS
VL: EIVMTQSPLSSPVTLGQPASISCRSSQSLVHRDGNTYLSWLRQRPGQPPRLLIYKISNRFSGVPDRFSGSGAGTDFTLKISRVEAEDVGIYYCMQATQFPTFGGGTKVEIKR
notes: also called 胆固醇依赖性细胞溶素抗体; 抗胆固醇依赖性细胞溶素抗体
Usually EC50 stands for the concentration needed to bring the measured effect to its halfway point. Consider B1, for which the EC50 turned out to be 0.00018 µM in assay [1], 49.9 µM in assay [2] and 44.9 µM in assay [3]. In addition, the binding result in assay [4] is “no binding (tested: 抗体1:1000稀释)”; in assay [5] it was “no binding (tested: 抗体1:1000稀释)”; in assay [6], “binds”.
